Results: the supplement of paper PMC10567573

B1: LOXL2 (parent)
chain: YVEVKEGKTWKQICDKHWTAKNSR

Variants of: B1
Experiment: protein stability index of a GFP-peptide fusion (GPS, HEK-293T) (PSI 1-6); higher = more stable
Details: c terminus: a fixed tail appended
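Further: lentivirally expressed fusions sorted by FACS into six bins by GFP to DsRed ratio, PSI derived from sequencing read proportions per bin multiplied by bin number.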

In order of rising protein stability index:
1. YVMVKEGKTWKQICDKHWTAKNSR  1.06
2. YVEYKEGKTWKQICDKHWTAKNSR  1.14
3. YVEVKEGKTWDQICDKHWTAKNSR  1.18
4. YVEVKETKTWKQICDKHWTAKNSR  1.24
5. YVEPKEGKTWKQICDKHWTAKNSR  1.26
6. YVEWKEGKTWKQICDKHWTAKNSR  1.39
7. YVEEKEGKTWKQICDKHWTAKNSR  1.42
8. YVCVKEGKTWKQICDKHWTAKNSR  1.44
9. YVEVKEGHTWKQICDKHWTAKNSR  1.44
10. YVEVSEGKTWKQICDKHWTAKNSR  1.46
11. YVEVKIGKTWKQICDKHWTAKNSR  1.47
12. YVEQKEGKTWKQICDKHWTAKNSR  1.51
13. YHEVKEGKTWKQICDKHWTAKNSR  1.55
14. YVEVKEGTTWKQICDKHWTAKNSR  1.55
15. YVVVKEGKTWKQICDKHWTAKNSR  1.56
16. YVEVKEGKDWKQICDKHWTAKNSR  1.6
17. YVEVKEDKTWKQICDKHWTAKNSR  1.6
18. YVEVKEGKEWKQICDKHWTAKNSR  1.61
19. YVEVKEAKTWKQICDKHWTAKNSR  1.61
20. YVEVKEHKTWKQICDKHWTAKNSR  1.62
21. YVEVKERKTWKQICDKHWTAKNSR  1.62
22. YVEVCEGKTWKQICDKHWTAKNSR  1.65
23. YVEVKEFKTWKQICDKHWTAKNSR  1.65
24. YVEVKEGNTWKQICDKHWTAKNSR  1.68
25. YVEVPEGKTWKQICDKHWTAKNSR  1.7
26. YVEVEEGKTWKQICDKHWTAKNSR  1.7
27. YVEVKEEKTWKQICDKHWTAKNSR  1.7
28. YVEVKEMKTWKQICDKHWTAKNSR  1.72
29. YVEHKEGKTWKQICDKHWTAKNSR  1.74
30. YAEVKEGKTWKQICDKHWTAKNSR  1.78
31. YVEVYEGKTWKQICDKHWTAKNSR  1.78
32. YVEMKEGKTWKQICDKHWTAKNSR  1.82
33. YVEVKEGKTWQQICDKHWTAKNSR  1.83
34. YVEVKRGKTWKQICDKHWTAKNSR  1.84
35. YVEVHEGKTWKQICDKHWTAKNSR  1.85
36. YVEVKEIKTWKQICDKHWTAKNSR  1.85
37. YVEVKEGGTWKQICDKHWTAKNSR  1.85
38. YVEVKEGKHWKQICDKHWTAKNSR  1.86
39. YVEVNEGKTWKQICDKHWTAKNSR  1.86
40. YVEVKESKTWKQICDKHWTAKNSR  1.86
41. YVRVKEGKTWKQICDKHWTAKNSR  1.88
42. YVEVKEKKTWKQICDKHWTAKNSR  1.91
43. YVEVKEGMTWKQICDKHWTAKNSR  1.91
44. YVEVKEGKTYKQICDKHWTAKNSR  1.93
45. YVEVKEGKVWKQICDKHWTAKNSR  1.94
46. YVEVKELKTWKQICDKHWTAKNSR  1.95
47. YVQVKEGKTWKQICDKHWTAKNSR  1.95
48. YVEVKEPKTWKQICDKHWTAKNSR  1.96
49. YGEVKEGKTWKQICDKHWTAKNSR  1.98
50. YWEVKEGKTWKQICDKHWTAKNSR  1.98
51. YVEVKEGKNWKQICDKHWTAKNSR  1.99
52. YVEVKEGKTWPQICDKHWTAKNSR  1.99
53. YVEVKSGKTWKQICDKHWTAKNSR  1.99
54. YVEVKEGKPWKQICDKHWTAKNSR  2
55. YVEVKEGLTWKQICDKHWTAKNSR  2.01
56. YVEKKEGKTWKQICDKHWTAKNSR  2.03
57. YVEVKEGVTWKQICDKHWTAKNSR  2.07
58. YCEVKEGKTWKQICDKHWTAKNSR  2.09
59. YVEVKEGKTWVQICDKHWTAKNSR  2.1
60. YVEVKEGKTWMQICDKHWTAKNSR  2.1
61. YVERKEGKTWKQICDKHWTAKNSR  2.1
62. YVEVKEGKGWKQICDKHWTAKNSR  2.11
63. YPEVKEGKTWKQICDKHWTAKNSR  2.12
64. YVEVKAGKTWKQICDKHWTAKNSR  2.14
65. YQEVKEGKTWKQICDKHWTAKNSR  2.16
66. YVEVKWGKTWKQICDKHWTAKNSR  2.16
67. YVEVKEGKTCKQICDKHWTAKNSR  2.17
68. YVEVKEGCTWKQICDKHWTAKNSR  2.17
69. YVEVKEYKTWKQICDKHWTAKNSR  2.18
70. YVEVKPGKTWKQICDKHWTAKNSR  2.18
71. YVEVKEGKTRKQICDKHWTAKNSR  2.2
72. YFEVKEGKTWKQICDKHWTAKNSR  2.21
73. YVEVKEGYTWKQICDKHWTAKNSR  2.21
74. YTEVKEGKTWKQICDKHWTAKNSR  2.22
75. YVECKEGKTWKQICDKHWTAKNSR  2.22
76. YVEVKEGKTWIQICDKHWTAKNSR  2.23
77. YVEVKEGKTGKQICDKHWTAKNSR  2.23
78. YVEVKEGRTWKQICDKHWTAKNSR  2.24
79. YVEVKEGKTWEQICDKHWTAKNSR  2.28
80. YVEVKEGKTWCQICDKHWTAKNSR  2.28
81. YVEVKECKTWKQICDKHWTAKNSR  2.29
82. YVNVKEGKTWKQICDKHWTAKNSR  2.29
83. WVEVKEGKTWKQICDKHWTAKNSR  2.29
84. YVEVKEGKTIKQICDKHWTAKNSR  2.3
85. YVEVKEGKYWKQICDKHWTAKNSR  2.33
86. YVEVMEGKTWKQICDKHWTAKNSR  2.33
87. YVEVTEGKTWKQICDKHWTAKNSR  2.35
88. YVEFKEGKTWKQICDKHWTAKNSR  2.36
89. YVEVKEGKTMKQICDKHWTAKNSR  2.37
90. YVEVKEGDTWKQICDKHWTAKNSR  2.41
91. YVEVKEQKTWKQICDKHWTAKNSR  2.42
92. YVEVKEGKTAKQICDKHWTAKNSR  2.42
93. YVEVKEGFTWKQICDKHWTAKNSR  2.42
94. YVEVKEGKKWKQICDKHWTAKNSR  2.43
95. YVEVKEGKTHKQICDKHWTAKNSR  2.44
96. YVEVKNGKTWKQICDKHWTAKNSR  2.44
97. YVEVKEGSTWKQICDKHWTAKNSR  2.44
98. YVEVKEGKTWHQICDKHWTAKNSR  2.45
99. YVEVIEGKTWKQICDKHWTAKNSR  2.46
100. YVEVGEGKTWKQICDKHWTAKNSR  2.46
101. YVEVKEGKTLKQICDKHWTAKNSR  2.46
102. YVEVKEGETWKQICDKHWTAKNSR  2.46
103. YVEVKEGKTFKQICDKHWTAKNSR  2.47
104. YVEVKEGKIWKQICDKHWTAKNSR  2.48
105. YVEVKFGKTWKQICDKHWTAKNSR  2.49
106. YVEVKEGATWKQICDKHWTAKNSR  2.49
107. YVEVKEGKTNKQICDKHWTAKNSR  2.5
108. YVEVKEGKLWKQICDKHWTAKNSR  2.52
109. YVEVKEWKTWKQICDKHWTAKNSR  2.52
110. YVEVKEGKTWRQICDKHWTAKNSR  2.52
111. YVFVKEGKTWKQICDKHWTAKNSR  2.52
112. YVEVKEGKTWLQICDKHWTAKNSR  2.53
113. YVIVKEGKTWKQICDKHWTAKNSR  2.53
114. YVEVDEGKTWKQICDKHWTAKNSR  2.54
115. YVEVKEGKRWKQICDKHWTAKNSR  2.55
116. YVEIKEGKTWKQICDKHWTAKNSR  2.55
117. YVEVKEGKSWKQICDKHWTAKNSR  2.56
118. YVLVKEGKTWKQICDKHWTAKNSR  2.58
119. YVWVKEGKTWKQICDKHWTAKNSR  2.6
120. YVEVKEGKTKKQICDKHWTAKNSR  2.61
121. YVEVVEGKTWKQICDKHWTAKNSR  2.63
122. YVDVKEGKTWKQICDKHWTAKNSR  2.63
123. YVEVKEGPTWKQICDKHWTAKNSR  2.63
124. YVEVKENKTWKQICDKHWTAKNSR  2.64
125. YVEVKHGKTWKQICDKHWTAKNSR  2.64
126. YVEVLEGKTWKQICDKHWTAKNSR  2.65
127. YVEVKYGKTWKQICDKHWTAKNSR  2.65
128. YIEVKEGKTWKQICDKHWTAKNSR  2.66
129. YVEVKEGITWKQICDKHWTAKNSR  2.67
130. YVKVKEGKTWKQICDKHWTAKNSR  2.68
131. YVEVKEGKTPKQICDKHWTAKNSR  2.69
132. YVEVKEGKTQKQICDKHWTAKNSR  2.7
133. YLEVKEGKTWKQICDKHWTAKNSR  2.72
134. YVEVKEGKTSKQICDKHWTAKNSR  2.73
135. YVYVKEGKTWKQICDKHWTAKNSR  2.73
136. YVESKEGKTWKQICDKHWTAKNSR  2.73
137. YVEAKEGKTWKQICDKHWTAKNSR  2.73
138. YVEVKEGKTWGQICDKHWTAKNSR  2.77
139. YVEVKTGKTWKQICDKHWTAKNSR  2.77
140. YVEVKEGKTVKQICDKHWTAKNSR  2.78
141. YVEVKLGKTWKQICDKHWTAKNSR  2.79
142. YYEVKEGKTWKQICDKHWTAKNSR  2.8
143. YVEVKEVKTWKQICDKHWTAKNSR  2.8
144. YSEVKEGKTWKQICDKHWTAKNSR  2.86
145. YVEGKEGKTWKQICDKHWTAKNSR  2.86
146. YVEVWEGKTWKQICDKHWTAKNSR  2.87
147. YVEVKMGKTWKQICDKHWTAKNSR  2.88
148. YVEVKKGKTWKQICDKHWTAKNSR  2.89
149. YVEVKDGKTWKQICDKHWTAKNSR  2.9
150. YVEVKEGKTTKQICDKHWTAKNSR  2.91
151. YVEVKEGKMWKQICDKHWTAKNSR  2.92
152. YVHVKEGKTWKQICDKHWTAKNSR  2.92
153. YVEVKEGKTWTQICDKHWTAKNSR  2.93
154. YMEVKEGKTWKQICDKHWTAKNSR  2.96
155. YVEVKEGKTEKQICDKHWTAKNSR  2.99
156. YKEVKEGKTWKQICDKHWTAKNSR  3
157. YVEVKEGKWWKQICDKHWTAKNSR  3.01
158. YVEVQEGKTWKQICDKHWTAKNSR  3.01
159. YREVKEGKTWKQICDKHWTAKNSR  3.03
160. YVEVKEGKTDKQICDKHWTAKNSR  3.03
161. YVEVKEGQTWKQICDKHWTAKNSR  3.07
162. RVEVKEGKTWKQICDKHWTAKNSR  3.12
163. YVEVAEGKTWKQICDKHWTAKNSR  3.18
164. TVEVKEGKTWKQICDKHWTAKNSR  3.21
165. YVEVKGGKTWKQICDKHWTAKNSR  3.33
166. YVEVKCGKTWKQICDKHWTAKNSR  3.35
167. YVEVKEGKTWSQICDKHWTAKNSR  3.37
168. YVEVKEGKTWFQICDKHWTAKNSR  3.38
169. VVEVKEGKTWKQICDKHWTAKNSR  3.4
170. MVEVKEGKTWKQICDKHWTAKNSR  3.49
171. YVEVKEGKTWWQICDKHWTAKNSR  3.53
172. YDEVKEGKTWKQICDKHWTAKNSR  3.58
173. QVEVKEGKTWKQICDKHWTAKNSR  3.58
174. YVTVKEGKTWKQICDKHWTAKNSR  3.63
175. YVGVKEGKTWKQICDKHWTAKNSR  3.63
176. PVEVKEGKTWKQICDKHWTAKNSR  3.68
177. YNEVKEGKTWKQICDKHWTAKNSR  3.69
178. YEEVKEGKTWKQICDKHWTAKNSR  3.7
179. SVEVKEGKTWKQICDKHWTAKNSR  3.71
180. YVEVKVGKTWKQICDKHWTAKNSR  3.77
181. YVELKEGKTWKQICDKHWTAKNSR  3.89
182. NVEVKEGKTWKQICDKHWTAKNSR  3.93
183. YVEVREGKTWKQICDKHWTAKNSR  3.94
184. YVSVKEGKTWKQICDKHWTAKNSR  3.96
185. YVEVKEGKCWKQICDKHWTAKNSR  4.04
186. YVAVKEGKTWKQICDKHWTAKNSR  4.18
187. YVEVKQGKTWKQICDKHWTAKNSR  4.18
188. YVEVKEGKFWKQICDKHWTAKNSR  4.42
